Reference: patent publication US20220056094A1 (JIANGSU HENGRUI MEDICINE, published 2022)
Like-named read-outs stand apart in the source and are kept apart here.

T1: high-affinity receptor IL-2Rα/β/γ on CTLL2 cells (mouse-derived cell line) (mouse, UniProt P01590 22-268; P16297 27-539; P34902 23-369)
T1 sequence (looked up) 1: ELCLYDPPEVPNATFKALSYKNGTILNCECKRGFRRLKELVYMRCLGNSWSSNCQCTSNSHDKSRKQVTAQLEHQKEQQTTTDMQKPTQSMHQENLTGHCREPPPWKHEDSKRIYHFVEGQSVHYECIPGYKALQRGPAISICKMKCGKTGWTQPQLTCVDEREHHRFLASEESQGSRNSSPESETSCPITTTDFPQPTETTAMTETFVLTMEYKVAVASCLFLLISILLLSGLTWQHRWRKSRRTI
T1 sequence (looked up) 2: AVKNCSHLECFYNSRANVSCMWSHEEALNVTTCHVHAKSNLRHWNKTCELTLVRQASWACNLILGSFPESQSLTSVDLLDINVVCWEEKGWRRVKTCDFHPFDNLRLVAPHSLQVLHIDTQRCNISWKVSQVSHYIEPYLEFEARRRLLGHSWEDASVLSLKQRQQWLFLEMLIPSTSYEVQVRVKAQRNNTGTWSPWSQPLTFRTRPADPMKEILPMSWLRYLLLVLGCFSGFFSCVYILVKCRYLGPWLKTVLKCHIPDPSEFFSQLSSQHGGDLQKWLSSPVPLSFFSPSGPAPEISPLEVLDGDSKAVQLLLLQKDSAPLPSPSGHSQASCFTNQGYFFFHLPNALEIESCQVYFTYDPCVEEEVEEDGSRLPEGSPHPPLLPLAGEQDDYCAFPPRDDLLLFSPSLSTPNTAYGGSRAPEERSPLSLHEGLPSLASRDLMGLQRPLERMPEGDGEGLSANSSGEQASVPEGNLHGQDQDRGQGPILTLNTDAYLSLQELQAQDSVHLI
T1 sequence (looked up) 3: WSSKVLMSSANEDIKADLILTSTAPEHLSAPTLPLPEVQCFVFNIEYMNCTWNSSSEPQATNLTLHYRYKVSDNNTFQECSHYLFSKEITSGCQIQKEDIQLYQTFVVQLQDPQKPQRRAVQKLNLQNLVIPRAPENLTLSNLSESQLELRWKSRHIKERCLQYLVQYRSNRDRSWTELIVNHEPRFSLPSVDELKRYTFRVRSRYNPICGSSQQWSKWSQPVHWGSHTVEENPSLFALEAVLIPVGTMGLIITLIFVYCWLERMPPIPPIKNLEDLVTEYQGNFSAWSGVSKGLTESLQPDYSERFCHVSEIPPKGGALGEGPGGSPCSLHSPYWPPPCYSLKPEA

T2: his-tagged human IL-2Rα recombinant protein (SinoBiological, Cat #10165-H08H) (human, UniProt P01589 22-213)
T2 construct: Bought protein; also called IL-2Rα (His Tag)
T2 sequence: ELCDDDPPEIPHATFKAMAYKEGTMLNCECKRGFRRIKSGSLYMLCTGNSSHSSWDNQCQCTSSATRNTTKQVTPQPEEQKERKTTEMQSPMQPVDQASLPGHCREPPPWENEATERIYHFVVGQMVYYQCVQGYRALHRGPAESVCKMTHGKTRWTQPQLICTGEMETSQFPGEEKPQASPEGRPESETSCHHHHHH

T3: IL-2 receptor IL-2Rα/β/γ on human peripheral blood Treg cells (human, UniProt P01589 22-272; P14784 27-551; P31785 23-369)
T3 sequence (looked up) 1: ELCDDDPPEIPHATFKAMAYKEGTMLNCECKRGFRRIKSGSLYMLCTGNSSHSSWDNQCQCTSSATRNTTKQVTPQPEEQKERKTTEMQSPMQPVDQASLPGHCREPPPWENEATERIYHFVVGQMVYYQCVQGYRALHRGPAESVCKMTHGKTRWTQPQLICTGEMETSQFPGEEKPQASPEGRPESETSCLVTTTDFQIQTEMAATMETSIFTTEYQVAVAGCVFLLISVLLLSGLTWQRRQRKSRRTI
T3 sequence (looked up) 2: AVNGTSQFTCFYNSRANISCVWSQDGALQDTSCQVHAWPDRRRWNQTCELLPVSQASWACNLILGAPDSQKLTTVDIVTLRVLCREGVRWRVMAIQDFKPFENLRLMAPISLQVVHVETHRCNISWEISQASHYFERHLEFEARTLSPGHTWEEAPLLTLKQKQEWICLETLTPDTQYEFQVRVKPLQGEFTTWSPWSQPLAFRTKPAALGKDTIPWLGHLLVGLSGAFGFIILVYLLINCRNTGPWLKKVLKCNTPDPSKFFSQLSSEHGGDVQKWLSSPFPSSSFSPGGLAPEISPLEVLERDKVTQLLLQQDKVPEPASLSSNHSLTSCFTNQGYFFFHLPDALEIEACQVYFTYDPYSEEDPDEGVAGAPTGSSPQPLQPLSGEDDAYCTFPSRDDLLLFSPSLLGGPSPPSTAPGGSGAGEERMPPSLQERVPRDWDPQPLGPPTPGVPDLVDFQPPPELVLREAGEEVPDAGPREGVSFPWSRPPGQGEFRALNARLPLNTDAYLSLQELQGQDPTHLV
T3 sequence (looked up) 3: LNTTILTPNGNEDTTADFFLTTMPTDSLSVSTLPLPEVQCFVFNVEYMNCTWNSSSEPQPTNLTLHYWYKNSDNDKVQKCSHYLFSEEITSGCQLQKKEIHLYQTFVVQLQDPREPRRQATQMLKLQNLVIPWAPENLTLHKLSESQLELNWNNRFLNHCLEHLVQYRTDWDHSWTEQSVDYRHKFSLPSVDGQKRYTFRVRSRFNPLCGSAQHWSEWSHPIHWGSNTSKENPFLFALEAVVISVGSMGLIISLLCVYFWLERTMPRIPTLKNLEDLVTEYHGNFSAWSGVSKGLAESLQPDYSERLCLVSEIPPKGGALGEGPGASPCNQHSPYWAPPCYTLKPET

T4: medium-affinity receptor IL-2Rβ/γ on human cells (Mo7e cell line; human CD8+T and NK cells) (human, UniProt P14784 27-551; P31785 23-369)
T4 sequence (looked up) 1: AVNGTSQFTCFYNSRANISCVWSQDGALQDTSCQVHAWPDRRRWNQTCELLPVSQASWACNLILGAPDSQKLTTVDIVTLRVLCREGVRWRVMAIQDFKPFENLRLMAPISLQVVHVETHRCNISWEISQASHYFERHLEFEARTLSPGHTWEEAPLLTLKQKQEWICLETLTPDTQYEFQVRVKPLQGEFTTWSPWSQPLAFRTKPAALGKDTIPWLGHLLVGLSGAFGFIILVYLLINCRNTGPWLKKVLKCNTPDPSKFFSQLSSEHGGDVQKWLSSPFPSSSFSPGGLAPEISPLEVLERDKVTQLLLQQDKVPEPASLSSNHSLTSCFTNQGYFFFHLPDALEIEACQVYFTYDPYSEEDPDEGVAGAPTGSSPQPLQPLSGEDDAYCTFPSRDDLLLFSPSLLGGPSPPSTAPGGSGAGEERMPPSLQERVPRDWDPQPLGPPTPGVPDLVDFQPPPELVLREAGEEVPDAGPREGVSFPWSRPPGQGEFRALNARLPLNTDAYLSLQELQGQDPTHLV
T4 sequence (looked up) 2: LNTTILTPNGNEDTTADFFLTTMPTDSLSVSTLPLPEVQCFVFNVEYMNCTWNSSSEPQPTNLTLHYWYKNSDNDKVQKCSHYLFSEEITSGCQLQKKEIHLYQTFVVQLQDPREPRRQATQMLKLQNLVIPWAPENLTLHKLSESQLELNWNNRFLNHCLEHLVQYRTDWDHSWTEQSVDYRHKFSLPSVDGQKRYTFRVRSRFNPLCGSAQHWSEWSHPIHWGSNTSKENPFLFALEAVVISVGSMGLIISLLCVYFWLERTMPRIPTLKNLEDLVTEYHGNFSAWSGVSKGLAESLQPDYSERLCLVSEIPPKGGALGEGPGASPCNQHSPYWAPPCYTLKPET


Legend:
[1] = molecular target: T5, IL-2Rβ/γ-Fc heterodimer (IL-2Rβ-Fc-hole with IL-2Rγ-Fc-knob); assay: SPR (Biacore), IL-2Rβ/γ-Fc captured on Protein A chip, 1:1 model
T5 construct: Co-expressed in HEK293 cells and purified with Protein A and Superdex 200
T5 sequence (chain, as listed by the source limits assumed, chain 1 of 2): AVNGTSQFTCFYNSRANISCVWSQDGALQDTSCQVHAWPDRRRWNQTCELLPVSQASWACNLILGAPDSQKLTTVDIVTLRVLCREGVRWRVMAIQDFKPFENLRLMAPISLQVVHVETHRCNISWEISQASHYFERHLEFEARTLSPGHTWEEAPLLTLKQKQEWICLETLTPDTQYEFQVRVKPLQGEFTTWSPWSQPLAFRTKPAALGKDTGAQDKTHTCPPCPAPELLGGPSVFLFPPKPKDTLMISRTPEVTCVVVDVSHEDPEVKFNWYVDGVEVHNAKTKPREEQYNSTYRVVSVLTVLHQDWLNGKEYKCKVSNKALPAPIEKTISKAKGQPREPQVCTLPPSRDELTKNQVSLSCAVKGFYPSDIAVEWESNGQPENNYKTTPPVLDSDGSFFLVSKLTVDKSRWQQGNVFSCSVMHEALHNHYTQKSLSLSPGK
T5 sequence (chain, as listed by the source limits assumed, chain 2 of 2): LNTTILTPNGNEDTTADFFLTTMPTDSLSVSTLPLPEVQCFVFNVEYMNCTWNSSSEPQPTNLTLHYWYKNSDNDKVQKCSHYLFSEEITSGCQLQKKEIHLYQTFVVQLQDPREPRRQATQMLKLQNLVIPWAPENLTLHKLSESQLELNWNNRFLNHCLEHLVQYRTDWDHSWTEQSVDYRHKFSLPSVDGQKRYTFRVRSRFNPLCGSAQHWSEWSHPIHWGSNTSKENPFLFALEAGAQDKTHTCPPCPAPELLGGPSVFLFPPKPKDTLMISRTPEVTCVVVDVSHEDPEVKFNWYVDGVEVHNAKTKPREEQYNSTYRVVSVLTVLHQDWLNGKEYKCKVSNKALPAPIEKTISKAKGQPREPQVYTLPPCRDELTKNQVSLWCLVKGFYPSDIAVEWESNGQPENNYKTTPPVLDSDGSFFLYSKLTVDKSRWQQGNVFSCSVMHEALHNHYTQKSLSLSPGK
Protocol: The Protein A sensor chip (GE, Cat #29127556) of the Biacore instrument (Biacore T200, GE) was used to capture IL-2Rβ/γ-Fc, wherein IL-2Rβ/γ-Fc was diluted with 1×HBS-EP to 1 μg/mL, and flowed at a flow rate of 10 μL/min for 30 seconds. […] The Biacore instrument (Biacore X100, GE) was used to detect the reaction in real time, to obtain association and dissociation curves. After each cycle of dissociation was completed, the chip was washed and regenerated with 10 mM Gly-HCl pH 1.5.

[2] = molecular target: T1, high-affinity receptor IL-2Rα/β/γ on …; assay: cell-based or functional assay
[3] = molecular target: T2, his-tagged human IL-2Rα recombinant …; assay: ELISA, his-tagged IL-2Rα coated, HRP anti-IL-2 polyclonal detection
Protocol: 96-well microtiter plate was coated with 2 μg/mL his-tagged IL-2Rα recombinant protein (SinoBiological, Cat #10165-H08H), and incubated overnight at 4° C. The plate was washed with washing solution for three times, 250 μl per well. For each time of washing, the plate was shaken for 10 seconds to ensure sufficient washing. 200 μl/well blocking solution was added and incubated at room temperature for 2 hours. The plate was washed with washing solution for three times, 250 μl per well. For each time of washing, the plate was shaken for 10 seconds to ensure sufficient washing. […] The plate was incubated for 1 hour at room temperature. The plate was washed with washing solution for three times, 250 μl per well. […] The plate was incubated for 1 hour at room temperature. The plate was washed with washing solution for three times, 250 μl per well. 100 μl TMB was added to each well, and the reaction was performed for 15 minutes in the dark. 50 μl of 0.16 M sulfuric acid was added to each well.

[4] = molecular target: T3, IL-2 receptor IL-2Rα/β/γ on human …; assay: cell-based or functional assay
[5] = molecular target: T4, medium-affinity receptor IL-2Rβ/γ on …; assay: cell-based or functional assay
[6] = molecular target: T1, high-affinity receptor IL-2Rα/β/γ on …; assay: cell-based or functional assay; remark: listed apart in the source

Row | Kd [1] | koff [1] | kon [1] | relative biological activity (CTLL2 cell proliferation) [2] | Binder | further results
1 | 0.509 nM | 0.000436 s⁻¹ | 856000 M⁻¹ s⁻¹ | 4% | IL-2-06 (… at positions 29-44 mutated into QSMHIDATL) (ligand, The entry already carries the replacement and C125A and begins with M. Made in E. coli) MAPTSSSTKKTQLQLEHLLLDLQMILNGIQSMHIDATLYMPKKATELKHLQCLEEELKPLEEVLNLAQSKNFHLRPRDLISNINVIVLELKGSETTFMCEYADETATIVEFLNRWITFAQSIISTLT | –
2 | 0.253 nM | 0.000135 s⁻¹ | 533000 M⁻¹ s⁻¹ | 162% | IL-2-03 (Q11C/L132C) (ligand, The entry already carries the mutations and C125A and begins with M. Made in E. coli) MAPTSSSTKKTCLQLEHLLLDLQMILNGINNYKNPKLTRMLTFKFYMPKKATELKHLQCLEEELKPLEEVLNLAQSKNFHLRPRDLISNINVIVLELKGSETTFMCEYADETATIVEFLNRWITFAQSIISTCT | EC50 [3]: 1.53 nM
3 | – | – | – | – | PEGylated IL-2-24 (ligand, mono-PEGylated with 20 kDa mPEG-butyraldehyde (sodium cyanoborohydride); site not stated) MAPTSSSTKKTQLQLEHLLLDLQMILQGISNYKNPKLTRMLTFKFYMPKKATELKHLQCLEEELKPLEEVLNLAQSKNFHLRPRDLISRINVIVLELKGSETTFMCEYADETATIVEFLNRWITFAQSIISTLT | EC50 (STAT5 phosphorylation in human Treg cells) [4]: 6.02 nM; relative biological activity (STAT5 phosphorylation in human Treg cells) [4]: 0.007%
4 | – | – | – | – | IL-2-22 (N26Q/N29S/F42A/N71Q/L72G) (ligand) MAPTSSSTKKTQLQLEHLLLDLQMILQGISNYKNPKLTRMLTAKFYMPKKATELKHLQCLEEELKPLEEVLQGAQSKNFHLRPRDLISNINVIVLELKGSETTFMCEYADETATIVEFLNRWITFAQSIISTLT | EC50 (Mo7e cell proliferation) [5]: 2.84 nM; relative biological activity (Mo7e cell proliferation) [5]: 86%; EC50 (CTLL2 cell proliferation) [6]: 5.73 nM; relative biological activity (CTLL2 cell proliferation) [6]: 0.9%
